This is an account of results in article PMC7980781.

As a reminder, the stoichiometry N is a count of units in the complex or per binding partner.

The experiment addresses T1, Purified 6xHis tagged recombinant FLCN, Q8NFG4.
T1 chain: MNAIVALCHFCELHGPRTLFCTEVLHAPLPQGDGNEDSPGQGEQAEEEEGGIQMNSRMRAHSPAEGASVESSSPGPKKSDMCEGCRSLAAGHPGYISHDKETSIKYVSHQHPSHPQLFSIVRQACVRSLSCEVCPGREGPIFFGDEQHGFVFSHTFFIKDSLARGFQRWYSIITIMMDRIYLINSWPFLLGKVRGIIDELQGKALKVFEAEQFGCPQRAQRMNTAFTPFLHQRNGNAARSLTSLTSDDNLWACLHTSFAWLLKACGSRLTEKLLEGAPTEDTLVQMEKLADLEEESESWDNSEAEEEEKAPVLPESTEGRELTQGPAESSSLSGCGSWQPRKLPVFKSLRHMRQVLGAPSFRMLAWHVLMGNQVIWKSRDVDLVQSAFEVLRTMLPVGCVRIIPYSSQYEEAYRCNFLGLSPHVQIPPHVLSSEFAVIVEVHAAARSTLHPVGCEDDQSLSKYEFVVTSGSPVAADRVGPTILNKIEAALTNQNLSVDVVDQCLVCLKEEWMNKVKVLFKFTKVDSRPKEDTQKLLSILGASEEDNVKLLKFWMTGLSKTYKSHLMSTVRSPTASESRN
Kind of experiment: native gel or EMSA. Particulars: remark: other sources report otherwise. Background: Mobility shift assays separate free from complexed probe on a gel.

B1: Purified 6xHis tagged recombinant FLCN, Q8NFG4 1-579 (natural protein)
chain: MNAIVALCHFCELHGPRTLFCTEVLHAPLPQGDGNEDSPGQGEQAEEEEGGIQMNSRMRAHSPAEGASVESSSPGPKKSDMCEGCRSLAAGHPGYISHDKETSIKYVSHQHPSHPQLFSIVRQACVRSLSCEVCPGREGPIFFGDEQHGFVFSHTFFIKDSLARGFQRWYSIITIMMDRIYLINSWPFLLGKVRGIIDELQGKALKVFEAEQFGCPQRAQRMNTAFTPFLHQRNGNAARSLTSLTSDDNLWACLHTSFAWLLKACGSRLTEKLLEGAPTEDTLVQMEKLADLEEESESWDNSEAEEEEKAPVLPESTEGRELTQGPAESSSLSGCGSWQPRKLPVFKSLRHMRQVLGAPSFRMLAWHVLMGNQVIWKSRDVDLVQSAFEVLRTMLPVGCVRIIPYSSQYEEAYRCNFLGLSPHVQIPPHVLSSEFAVIVEVHAAARSTLHPVGCEDDQSLSKYEFVVTSGSPVAADRVGPTILNKIEAALTNQNLSVDVVDQCLVCLKEEWMNKVKVLFKFTKVDSRPKEDTQKLLSILGASEEDNVKLLKFWMTGLSKTYKSHLMSTVRSPTASESRN
As to B1, the stoichiometry N came to 2.
